Molecular target: VFLIP_D614G spike with Foldon and purification tags enzymatically removed (SARS-CoV-2) (UniProt P0DTC2)
Test: cryo-EM structure

**Q.** For “HLX70 Fab (Fab from HLX70, a humanized pan-coronavirus mAb)”, which stoichiometry N is on record?
**A.** 3 Fab:spike

— article doi:10.1101/2021.05.06.441046
